Data set [1] addresses T1, YT521-B YTH domain (Rattus norvegicus, UniProt Q9QY02 347-502). The data set can be described thus: ITC; 20 C; 125 uM RNA into 10 uM protein; 25 mM NaH2PO4, 25 mM NaCl, 10 mM beta-mercaptoethanol, pH 7; ITC and NMR titrations at 20 C, structure at 30 C. On the technique in general: Isothermal titration calorimetry measures the heat released or taken up as one component is titrated into another.

In data set [2] the target is T1, YT521-B YTH domain. The data set can be described thus: ITC; 20 C; 410 uM RNA into 14 uM protein; 25 mM NaH2PO4, 25 mM NaCl, 10 mM beta-mercaptoethanol, pH 7; ITC and NMR titrations at 20 C, structure at 30 C.

A word on the Kd: it is a measure of binding affinity in units of concentration. Higher therefore signals lower affinity.

On to UGACAC (ssRNA, N6-methyladenosine at position 3) [5'-UGm6ACAC-3'], for which the Kd with YT521-B YTH domain [1] turned out to be 100 nM.
Take UGACAC (ssRNA) [5'-UGACAC-3']: in the data set with YT521-B YTH domain [2], the Kd stood at 5 µM.

The values above are taken from article PMC4267619.
